Data: patent publication US20140213531A1 (POLYPHOR, published 2014)
Bridges are numbered along the chain shown (N, C = ends). [ ]: non-standard residue; d: D form. Pro(4NHCOPhe) = not defined here; Nle = CCCC[C@H](N)C(=O)O

T1: Chymase, from human skin (human, UniProt P23946 22-247)
T1 construct: purified natural enzyme, bought
T1 sequence (looked up): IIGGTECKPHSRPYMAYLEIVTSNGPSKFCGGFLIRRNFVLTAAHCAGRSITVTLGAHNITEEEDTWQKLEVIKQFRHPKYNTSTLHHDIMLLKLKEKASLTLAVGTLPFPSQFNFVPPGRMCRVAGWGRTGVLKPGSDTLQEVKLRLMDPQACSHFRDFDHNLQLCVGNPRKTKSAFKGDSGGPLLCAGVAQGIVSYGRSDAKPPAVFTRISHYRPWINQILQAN

T2: Elastase from human neutrophils (human, UniProt P08246 30-247, limits assumed)
T2 sequence (looked up): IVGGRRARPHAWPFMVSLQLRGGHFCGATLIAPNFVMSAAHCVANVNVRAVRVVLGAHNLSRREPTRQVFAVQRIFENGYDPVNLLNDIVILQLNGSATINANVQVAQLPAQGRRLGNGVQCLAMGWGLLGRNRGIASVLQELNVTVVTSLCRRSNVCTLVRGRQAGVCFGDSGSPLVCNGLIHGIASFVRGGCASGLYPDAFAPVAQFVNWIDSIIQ

T3: CathepsinG, from human neutrophils (human, UniProt P08311 21-244)
T3 sequence (looked up): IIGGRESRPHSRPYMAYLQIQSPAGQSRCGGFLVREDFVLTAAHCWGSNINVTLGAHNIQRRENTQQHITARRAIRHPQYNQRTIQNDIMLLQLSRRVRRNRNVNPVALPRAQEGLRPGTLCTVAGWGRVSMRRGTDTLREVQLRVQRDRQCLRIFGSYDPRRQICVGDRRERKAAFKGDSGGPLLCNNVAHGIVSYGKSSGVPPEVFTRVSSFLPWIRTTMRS

T4: Chymase, from human skin (human, UniProt P23946 22-247)
T4 sequence (looked up): T1 sequence (looked up)

B1: Example 121 (peptide)
peptide: XCTASIPPQCY
HELM: PEPTIDE1{[Nle].C.T.A.S.I.P.P.Q.C.Y.[dP].D}$PEPTIDE1,PEPTIDE1,2:R3-10:R3|PEPTIDE1,PEPTIDE1,1:R1-13:R2$$$V2.0
SMILES: CCCC[C@@H]1NC(=O)[C@H](CC(=O)O)NC(=O)[C@H]2CCCN2C(=O)[C@H](Cc2ccc(O)cc2)NC(=O)[C@@H]2CSSC[C@H](NC1=O)C(=O)N[C@@H]([C@@H](C)O)C(=O)N[C@@H](C)C(=O)N[C@@H](CO)C(=O)N[C@@H]([C@@H](C)CC)C(=O)N1CCC[C@H]1C(=O)N1CCC[C@H]1C(=O)N[C@@H](CCC(N)=O)C(=O)N2
B2: Example 131 (peptide)
peptide: XCTASIPPQCQ
HELM: PEPTIDE1{[Nle].C.T.A.S.I.P.P.Q.C.Q.[dP].P}$PEPTIDE1,PEPTIDE1,2:R3-10:R3|PEPTIDE1,PEPTIDE1,1:R1-13:R2$$$V2.0
SMILES: CCCC[C@@H]1NC(=O)[C@@H]2CCCN2C(=O)[C@H]2CCCN2C(=O)[C@H](CCC(N)=O)NC(=O)[C@@H]2CSSC[C@H](NC1=O)C(=O)N[C@@H]([C@@H](C)O)C(=O)N[C@@H](C)C(=O)N[C@@H](CO)C(=O)N[C@@H]([C@@H](C)CC)C(=O)N1CCC[C@H]1C(=O)N1CCC[C@H]1C(=O)N[C@@H](CCC(N)=O)C(=O)N2
B3: Example 103 (peptide)
peptide: XCTASIPPQCY
HELM: PEPTIDE1{[O=C([C@H](CCc1ccccc1)N[*:1])[*:2]].C.T.A.S.I.P.P.Q.C.Y.[dP].P}$PEPTIDE1,PEPTIDE1,2:R3-10:R3|PEPTIDE1,PEPTIDE1,1:R1-13:R2$$$V2.0
SMILES: CC[C@H](C)[C@@H]1NC(=O)[C@H](CO)NC(=O)[C@H](C)NC(=O)[C@H]([C@@H](C)O)NC(=O)[C@@H]2CSSC[C@H](NC(=O)[C@H](CCC(N)=O)NC(=O)[C@@H]3CCCN3C(=O)[C@@H]3CCCN3C1=O)C(=O)N[C@@H](Cc1ccc(O)cc1)C(=O)N1CCC[C@@H]1C(=O)N1CCC[C@H]1C(=O)N[C@@H](CCc1ccccc1)C(=O)N2
B4: Example 90 (peptide)
peptide: XCTASIPPQCF
HELM: PEPTIDE1{[Nle].C.T.A.S.I.P.P.Q.C.F.[dP].P}$PEPTIDE1,PEPTIDE1,2:R3-10:R3|PEPTIDE1,PEPTIDE1,1:R1-13:R2$$$V2.0
SMILES: CCCC[C@@H]1NC(=O)[C@@H]2CCCN2C(=O)[C@H]2CCCN2C(=O)[C@H](Cc2ccccc2)NC(=O)[C@@H]2CSSC[C@H](NC1=O)C(=O)N[C@@H]([C@@H](C)O)C(=O)N[C@@H](C)C(=O)N[C@@H](CO)C(=O)N[C@@H]([C@@H](C)CC)C(=O)N1CCC[C@H]1C(=O)N1CCC[C@H]1C(=O)N[C@@H](CCC(N)=O)C(=O)N2
notes: also called Ex. 90
B5: Example 7 (peptide)
peptide: RETKSDPPIRF
HELM: PEPTIDE1{R.E.T.K.S.D.P.P.I.R.F.[dP].P}$PEPTIDE1,PEPTIDE1,1:R1-13:R2$$$V2.0
SMILES: CC[C@H](C)[C@@H]1NC(=O)[C@@H]2CCCN2C(=O)[C@@H]2CCCN2C(=O)[C@H](CC(=O)O)NC(=O)[C@H](CO)NC(=O)[C@H](CCCCN)NC(=O)[C@H]([C@@H](C)O)NC(=O)[C@H](CCC(=O)O)NC(=O)[C@H](CCCNC(=N)N)NC(=O)[C@@H]2CCCN2C(=O)[C@H]2CCCN2C(=O)[C@H](Cc2ccccc2)NC(=O)[C@H](CCCNC(=N)N)NC1=O
B6: Example 12 (peptide)
peptide: XCTKSDPPICR
HELM: PEPTIDE1{[O=C([C@@H](N[*:1])C1CCCCC1)[*:2]].C.T.K.S.D.P.P.I.C.R.[dP].P}$PEPTIDE1,PEPTIDE1,2:R3-10:R3|PEPTIDE1,PEPTIDE1,1:R1-13:R2$$$V2.0
SMILES: CC[C@H](C)[C@@H]1NC(=O)[C@@H]2CCCN2C(=O)[C@@H]2CCCN2C(=O)[C@H](CC(=O)O)NC(=O)[C@H](CO)NC(=O)[C@H](CCCCN)NC(=O)[C@H]([C@@H](C)O)NC(=O)[C@@H]2CSSC[C@H](NC1=O)C(=O)N[C@@H](CCCNC(=N)N)C(=O)N1CCC[C@@H]1C(=O)N1CCC[C@H]1C(=O)N[C@@H](C1CCCCC1)C(=O)N2
B7: Example 68 (peptide)
peptide: FCTKSDPPICS
HELM: PEPTIDE1{F.C.T.K.S.D.P.P.I.C.S.[dA].D}$PEPTIDE1,PEPTIDE1,2:R3-10:R3|PEPTIDE1,PEPTIDE1,1:R1-13:R2$$$V2.0
SMILES: CC[C@H](C)[C@@H]1NC(=O)[C@@H]2CCCN2C(=O)[C@@H]2CCCN2C(=O)[C@H](CC(=O)O)NC(=O)[C@H](CO)NC(=O)[C@H](CCCCN)NC(=O)[C@H]([C@@H](C)O)NC(=O)[C@@H]2CSSC[C@H](NC1=O)C(=O)N[C@@H](CO)C(=O)N[C@H](C)C(=O)N[C@@H](CC(=O)O)C(=O)N[C@@H](Cc1ccccc1)C(=O)N2
B8: Example 64 (peptide)
peptide: FCTKSDPPICS
HELM: PEPTIDE1{F.C.T.K.S.D.P.P.I.C.S.[dP].E}$PEPTIDE1,PEPTIDE1,2:R3-10:R3|PEPTIDE1,PEPTIDE1,1:R1-13:R2$$$V2.0
SMILES: CC[C@H](C)[C@@H]1NC(=O)[C@@H]2CCCN2C(=O)[C@@H]2CCCN2C(=O)[C@H](CC(=O)O)NC(=O)[C@H](CO)NC(=O)[C@H](CCCCN)NC(=O)[C@H]([C@@H](C)O)NC(=O)[C@@H]2CSSC[C@H](NC1=O)C(=O)N[C@@H](CO)C(=O)N1CCC[C@@H]1C(=O)N[C@@H](CCC(=O)O)C(=O)N[C@@H](Cc1ccccc1)C(=O)N2
B9: Example 75 (peptide)
peptide: RCTKSDPPICF
HELM: PEPTIDE1{R.C.T.K.S.D.P.P.I.C.F.[dP].P}$PEPTIDE1,PEPTIDE1,2:R3-10:R3|PEPTIDE1,PEPTIDE1,1:R1-13:R2$$$V2.0
SMILES: CC[C@H](C)[C@@H]1NC(=O)[C@@H]2CCCN2C(=O)[C@@H]2CCCN2C(=O)[C@H](CC(=O)O)NC(=O)[C@H](CO)NC(=O)[C@H](CCCCN)NC(=O)[C@H]([C@@H](C)O)NC(=O)[C@@H]2CSSC[C@H](NC1=O)C(=O)N[C@@H](Cc1ccccc1)C(=O)N1CCC[C@@H]1C(=O)N1CCC[C@H]1C(=O)N[C@@H](CCCNC(=N)N)C(=O)N2

Biological target: T5, Trypsin, Iodination grade, from human pancreas (human, UniProt P07477 24-247)
T5 construct: purified natural enzyme, bought
Test: enzyme inhibition, pNA substrate

% inhibition at 100 µM [%]	Binder
0	cyclo([Nle]CTASIPPQCY[dF]P) (disulfide 2-10) [Example 116]
12.8	B1
0	B2

Biological target: T1, Chymase, from human skin
Test: enzyme inhibition, pNA substrate

% inhibition at 100 µM [%]	Binder
0	B3
0	cyclo([Nle]CTASIP[Pro(4NHCOPhe)]QCY[dP]P) (disulfide 2-10; reading uncertain, also called Ex. 88) [Example 88]
0	B4

Biological target: Thrombin, from Human Plasma, high activity (human, UniProt P00734 328-622)
Test: enzyme inhibition, pNA substrate

% inhibition at 100 µM [%]	Binder
10.2	B3
0	B1
0	B4

Biological target: Trypsin, Iodination grade, from human pancreas (human, UniProt P07477 24-247)
Test: cell-based or functional assay

% inhibition at 100 µM [%]	Binder
41	B5
97	B6
84.2	B7
87	B8
92.6	B9

Biological target: Chymotrypsin, from human pancreas (human, UniProt P17538 19-263)
Sequence (P17538 19-263): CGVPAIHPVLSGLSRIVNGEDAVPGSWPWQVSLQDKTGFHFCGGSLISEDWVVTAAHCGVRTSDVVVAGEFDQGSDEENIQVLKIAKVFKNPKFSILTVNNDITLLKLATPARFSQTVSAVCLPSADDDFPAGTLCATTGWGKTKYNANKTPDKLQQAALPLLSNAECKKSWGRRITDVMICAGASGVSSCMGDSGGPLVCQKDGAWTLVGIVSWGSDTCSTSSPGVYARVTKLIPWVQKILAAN
Test: cell-based or functional assay

% inhibition at 100 µM [%]	Binder
12	B5
28	B6
4.3	B7
0	B8
7.8	B9

Biological target: Tryptase, from human lung (human, UniProt Q15661 31-275, limits assumed)
Sequence (Q15661 31-275 limits assumed): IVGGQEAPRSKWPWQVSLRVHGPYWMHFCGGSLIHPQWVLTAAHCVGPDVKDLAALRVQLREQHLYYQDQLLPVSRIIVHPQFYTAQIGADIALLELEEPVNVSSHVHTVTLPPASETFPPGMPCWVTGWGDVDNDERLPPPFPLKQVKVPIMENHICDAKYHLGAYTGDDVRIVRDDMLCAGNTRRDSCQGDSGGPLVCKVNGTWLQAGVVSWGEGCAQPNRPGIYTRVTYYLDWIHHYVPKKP
Test: cell-based or functional assay

% inhibition at 100 µM [%]	Binder
1.5	B5
59.3	B6
21.3	B7
0	B8
0	B9

Biological target: Thrombin, from Human Plasma, high activity (human, UniProt P00734 328-622)
Test: cell-based or functional assay

% inhibition at 100 µM [%]	Binder
0	B5
11	B6
5.4	B7
2.3	B8
1.1	B9

Biological target: T2, Elastase from human neutrophils
Test: cell-based or functional assay

% inhibition at 100 µM [%]	IC50 [nmol]	Binder
1.5	–	B5
–	37000	B6
–	> 100000	B7
–	> 100000	B8
69.1	–	B9

Biological target: T3, CathepsinG, from human neutrophils
Test: cell-based or functional assay

IC50 [nmol]	Binder
91	B5
90	B6
59	B7
45	B8
86	B9

Biological target: Coagulation Factor Xa, from human plasma (human, UniProt P00742 41-488, limits assumed)
Sequence (P00742 41-488 limits assumed): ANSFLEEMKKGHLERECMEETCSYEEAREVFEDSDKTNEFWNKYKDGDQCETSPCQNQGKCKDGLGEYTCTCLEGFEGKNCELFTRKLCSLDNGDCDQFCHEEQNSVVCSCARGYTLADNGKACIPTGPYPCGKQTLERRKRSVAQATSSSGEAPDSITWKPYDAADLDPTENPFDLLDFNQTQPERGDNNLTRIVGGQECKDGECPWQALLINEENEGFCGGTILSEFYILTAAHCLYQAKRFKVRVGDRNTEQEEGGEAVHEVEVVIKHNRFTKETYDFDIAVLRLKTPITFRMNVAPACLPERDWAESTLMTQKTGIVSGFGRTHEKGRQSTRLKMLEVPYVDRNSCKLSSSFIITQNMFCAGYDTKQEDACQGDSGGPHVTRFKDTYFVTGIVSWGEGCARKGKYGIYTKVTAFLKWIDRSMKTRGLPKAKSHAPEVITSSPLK
Test: cell-based or functional assay

% inhibition at 100 µM [%]	Binder
11.7	B5
5	B6
8.6	B7
0	B8
5.7	B9

Biological target: Urokinase from human urine (human, UniProt P00749 21-431, limits assumed)
Test: cell-based or functional assay

% inhibition at 100 µM [%]	Binder
1.1	B5
12	B6
4.6	B7
3	B8
5.7	B9

Biological target: T4, Chymase, from human skin
Test: cell-based or functional assay

% inhibition at 100 µM [%]	Binder
13.4	B5
12	B6
0	B7
0	B8
0	B9
